Results on two proteins are retold here after PMC11472156, “Synergistic regulation of fusion pore opening and dilation by SNARE and synaptotagmin-1” (Journal of Molecular Cell Biology, 2024).

The series deals with the molecule itself. The experiment in a line: single-molecule fluorescence photobleaching step counting; 40 pM Cy5-labeled C2AB incubated 30 min at room temperature on a DiI-labeled supported lipid bilayer (15% DOPS, with or without 1% PIP2), no Ca2+; unbound protein removed; photobleaching steps per fluorescent spot fitted to a Poisson distribution and corrected for unlabeled fragments; printed numbers are with 1% PIP2.

Where a chain is given by its changes, count along the chain named. Names and notes keep the numbering of the source.

B1: Syt1 C2B domain-containing C2AB fragment, C2AB (A418C), Cy5-labeled (domain or fragment)
chain: KLGKLQYSLDYDFQNNQLLVGIIQAAELPALDMGGTSDPYVKVFLLPDKKKKFETKVHRKTLNPVFNEQFTFKVPYSELGGKTLVMAVYDFDRFSKHDIIGEFKVPMNTVDFGHVTEEWRDLQSAEKEEQEKLGDICFSLRYVPTAGKLTVVILEAKNLKKMDVGGLSDPYVKIHLMQNGKRLKKKKTTIKKNTLNPYYNESFSFEVPFEQIQKVQVVVTVLDYDKIGKNDAIGKVFVGYNSTGAELRHWSDMLANPRRPIAQWHTLQVEEEVDAMLCVKK
modifications: Sulfo-Cy5 maleimide label (labeling efficiency 34.5%-42%)
Take B1: the “stoichiometry N” value turned out to be 6.85 molecules.

B2: C2AB_F349A (A418C), Cy5-labeled (domain or fragment)
chain: B1 chain with F209A
modifications: Sulfo-Cy5 maleimide label (labeling efficiency 34.5%-42%)
For the protein B2, the “stoichiometry N” value worked out at 3.03 molecules.

The term stoichiometry N denotes the number of molecules, sites or subunits per partner or assembly.
